Results: publication doi:10.1101/737510 (bioRxiv, 2019)

Target: DDA1 (human, UniProt Q9BW61 1-102)
Assay: crystal structure

B1: DDB1(ΔBPB) (natural protein)
chain: MSYNYVVTAQKPTAVNGCVTGHFTSAEDLNLLIAKNTRLEIYVVTAEGLRPVKEVGMYGKIAVMELFRPKGESKDLLFILTAKYNACILEYKQSGESIDIITRAHGNVQDRIGRPSETGIIGIIDPECRMIGLRLYDGLFKVIPLDRDNKELKAFNIRLEELHVIDVKFLYGCQAPTICFVYQDPQGRHVKTYEVSLREKEFNKGPWKQENVEAEASMVIAVPEPFGGAIIIGQESITYHNGDKYLAIAPPIIKQSTIVCHNRVDPNGSRYLLGDMEGRLFMLLLEKEEQMDGTVTLKDLRVELLGETSIAECLTYLDNGVVFVGSRLGDSQLVKLNVDSNEQGSYVVAMETFTNLGPIVDMCVVDLERQGQGQLVTCSGAFKEGSLRIIRNGIGIHGTIDEIQKLHIRTVPLYESPRKICYQEVSQCFGVLSSRIEVQDTSGGTTALRPSASTQALSSSVSSSKLFSSSTAPHETSFGEEVEVHNLLIIDQHTFEVLHAHQFLQNEYALSLVSCKLGKDPNTYFIVGTAMVYPEEAEPKQGRIVVFQYSDGKLQTVAEKEVKGAVYSMVEFNGKLLASINSTVRLYEWTTEKELRTECNHYNNIMALYLKTKGDFILVGDLMRSVLLLAYKPMEGNFEEIARDFNPNWMSAVEILDDDNFLGAENAFNLFVCQKDSAATTDEERQHLQEVGLFHLGEFVNVFCHGSLVMQNLGETSTPTQGSVLFGTVNGMIGLVTSLSESWYNLLLDMQNRLNKVIKSVGKIEHSFWRSFHTERKTEPATGFIDGDLIESFLDISRPKMQEVVANLQYDDGSGMKREATADDLIKVVEELTRIH
binding result: binds
